# EP2649983A1, “Compounds which inhibit neuronal exocytosis (II)” (Lipotec, S.A., priority 2012, dated 2013)
# Non-standard residues stand in square brackets, D forms with d. *: point of attachment. Met(O2) = CS(=O)(=O)CC[C@H](N)C(=O)O; Palmitoyl = CCCCCCCCCCCCCCCC(=O)*; NHhexadecyl = CCCCCCCCCCCCCCCCN*; Met(O) = CS(=O)CC[C@H](N)C(=O)O; Myristoyl = CCCCCCCCCCCCCC(=O)*
# Target: SNARE complex (VAMP, syntaxin and SNAP-25 bound to GST) (UniProt P60880)
# Experiment: competition ELISA: VAMP on plate, SNAP-25-GST + syntaxin, anti-GST detection; compound at 2.5 mM
# Sequence of SNARE complex (VAMP, syntaxin and SNAP-25 bound to GST) (P60880 whole entry, one chain of several): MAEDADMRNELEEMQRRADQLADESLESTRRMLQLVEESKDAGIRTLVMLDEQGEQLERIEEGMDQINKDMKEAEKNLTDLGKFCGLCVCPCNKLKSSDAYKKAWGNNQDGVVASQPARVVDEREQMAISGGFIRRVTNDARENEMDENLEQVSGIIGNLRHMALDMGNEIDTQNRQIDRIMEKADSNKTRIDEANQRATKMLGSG
row,Binder,% inhibition formation SNARE complex [%]
1,Palmitoyl-QHLHNVM-NH2 [Palm-SEQ ID NO:3-NH2],51
2,Ac-NHLKNWM-NH2 [Ac-SEQ ID NO:31-NH2],59
3,Palmitoyl-DHFLNWM-NH2 [Palm-SEQ ID NO:34-NH2],51
4,Ac-EDLKRWM-NH2 [Ac-SEQ ID NO:14-NH2],67
5,Ac-NHFLNWM-NH2 [Ac-SEQ ID NO:15-NH2],42
6,Ac-DHLKKWM-NH2 [Ac-SEQ ID NO:22-NH2],72
7,Ac-EDLKRWM-NHhexadecyl [Ac-SEQ ID NO:14-NH-(CH2)15-CH3],35
8,Ac-QHLKNWM-NH2 [Ac-SEQ ID NO:27-NH2],14
9,Ac-DHFLDWM-NH2 [Ac-SEQ ID NO:25-NH2],71
10,Palmitoyl-NHFLNWM-NH2 [Palm-SEQ ID NO:15-NH2],21
11,Myristoyl-NHFLNWM-NH2 [Myr-SEQ ID NO:15-NH2],19
12,Ac-EHLKKWM-NH2 [Ac-SEQ ID NO:8-NH2],44
13,Ac-DHFQQRM-NH2 [Ac-SEQ ID NO:24-NH2],55
14,Ac-DHFLDW[Met(O2)]-NH2 [Ac-SEQ ID NO:61-NH2],26
15,Ac-DHFLNWM-NH2 [Ac-SEQ ID NO:34-NH2],85
16,Ac-QHLKEWM-NH2 [Ac-SEQ ID NO:12-NH2],71
17,Ac-NHLKHWM-NH2 [Ac-SEQ ID NO:32-NH2],19
18,Ac-EHLKQWM-NH2 [Ac-SEQ ID NO:1-NH2],63
19,Ac-NDLKDWM-NH2 [Ac-SEQ ID NO:23-NH2],60
20,Ac-QHLHNVM-NH2 [Ac-SEQ ID NO:3-NH2],64

# Next, values leading:
row,% inhibition formation SNARE complex [%],Binder
1,53,Palmitoyl-DHFLDWM-NH2 [Palm-SEQ ID NO:25-NH2]
2,44,Palmitoyl-DHFQQRM-NH2 [Palm-SEQ ID NO:24-NH2]
3,42,Palmitoyl-EDLKRWM-NH2 [Palm-SEQ ID NO:14-NH2]
4,64,Ac-DHFLDW[Met(O)]-NH2 [Ac-SEQ ID NO:56-NH2]
5,59,Ac-EHLKQWM-OH [Ac-SEQ ID NO:1-OH]
6,71,Ac-EHFLQWM-NH2 [Ac-SEQ ID NO:30-NH2]
7,58,H-EHLKQWM-NH2 [H-SEQ ID NO:1-NH2]
8,64,Ac-QDFLHWM-NH2 [Ac-SEQ ID NO:2-NH2]
9,47,Palmitoyl-EHLKQWM-NH2 [Palm-SEQ ID NO:1-NH2]
10,20,Ac-RHFLQWM-NH2 [Ac-SEQ ID NO:13-NH2]

# Target: SNARE complex (VAMP, syntaxin and SNAP-25 bound to GST) (UniProt P60880)
# Experiment: competition ELISA: VAMP on plate, SNAP-25-GST + syntaxin, anti-GST detection; compound at 0.5 mM
row,Binder,% inhibition formation SNARE complex [%]
1,Palmitoyl-QHLHNVM-NH2 [Palm-SEQ ID NO:3-NH2],20
2,Ac-NHLKNWM-NH2 [Ac-SEQ ID NO:31-NH2],26
3,Palmitoyl-DHFLNWM-NH2 [Palm-SEQ ID NO:34-NH2],19
4,Ac-EDLKRWM-NH2 [Ac-SEQ ID NO:14-NH2],43
5,Ac-NHFLNWM-NH2 [Ac-SEQ ID NO:15-NH2],48
6,Ac-DHLKKWM-NH2 [Ac-SEQ ID NO:22-NH2],18
7,Ac-EDLKRWM-NHhexadecyl [Ac-SEQ ID NO:14-NH-(CH2)15-CH3],11
8,Ac-DHFLDWM-NH2 [Ac-SEQ ID NO:25-NH2],40
9,Palmitoyl-NHFLNWM-NH2 [Palm-SEQ ID NO:15-NH2],18
10,Ac-EHLKKWM-NH2 [Ac-SEQ ID NO:8-NH2],11
11,Ac-DHFQQRM-NH2 [Ac-SEQ ID NO:24-NH2],41
12,Ac-DHFLDW[Met(O2)]-NH2 [Ac-SEQ ID NO:61-NH2],8
13,Ac-DHFLNWM-NH2 [Ac-SEQ ID NO:34-NH2],27
14,Ac-QHLKEWM-NH2 [Ac-SEQ ID NO:12-NH2],20
15,Ac-EHLKQWM-NH2 [Ac-SEQ ID NO:1-NH2],33
16,Ac-NDLKDWM-NH2 [Ac-SEQ ID NO:23-NH2],10
17,Ac-QHLHNVM-NH2 [Ac-SEQ ID NO:3-NH2],31

# Further lines, results first:
row,% inhibition formation SNARE complex [%],Binder
1,24,Palmitoyl-DHFLDWM-NH2 [Palm-SEQ ID NO:25-NH2]
2,36,Palmitoyl-DHFQQRM-NH2 [Palm-SEQ ID NO:24-NH2]
3,18,Palmitoyl-EDLKRWM-NH2 [Palm-SEQ ID NO:14-NH2]
4,16,Ac-DHFLDW[Met(O)]-NH2 [Ac-SEQ ID NO:56-NH2]
5,29,Ac-EHLKQWM-OH [Ac-SEQ ID NO:1-OH]
6,24,Ac-EHFLQWM-NH2 [Ac-SEQ ID NO:30-NH2]
7,30,H-EHLKQWM-NH2 [H-SEQ ID NO:1-NH2]
8,26,Ac-QDFLHWM-NH2 [Ac-SEQ ID NO:2-NH2]
9,21,Palmitoyl-EHLKQWM-NH2 [Palm-SEQ ID NO:1-NH2]

# Target: SNARE complex (VAMP, syntaxin and SNAP-25) (UniProt P60880)
# Sequence (P60880 whole entry, one chain of several): as above
# Experiment: SDS-PAGE of SNARE complex: VAMP + syntaxin + compound, then SNAP-25; image analysis; compound at 5 mM
row,Binder,% inhibition formation SNARE complex [%]
1,Ac-EDLKRWM-NH2 [Ac-SEQ ID NO:14-NH2],100
2,Ac-NHFLNWM-NH2 [Ac-SEQ ID NO:15-NH2],100
3,Ac-EDLKRWM-NHhexadecyl [Ac-SEQ ID NO:14-NH-(CH2)15-CH3],85
4,Ac-DHFLDWM-NH2 [Ac-SEQ ID NO:25-NH2],100
5,Palmitoyl-NHFLNWM-NH2 [Palm-SEQ ID NO:15-NH2],74
6,Myristoyl-NHFLNWM-NH2 [Myr-SEQ ID NO:15-NH2],76
7,Ac-DHFQQRM-NH2 [Ac-SEQ ID NO:24-NH2],100
8,Ac-DHFLDW[Met(O2)]-NH2 [Ac-SEQ ID NO:61-NH2],89
9,Ac-DHFLNWM-NH2 [Ac-SEQ ID NO:34-NH2],59
10,Ac-EHLKQWM-NH2 [Ac-SEQ ID NO:1-NH2],100

# Continued, values first:
row,% inhibition formation SNARE complex [%],Binder
1,85,Palmitoyl-DHFLDWM-NH2 [Palm-SEQ ID NO:25-NH2]
2,66,Palmitoyl-DHFQQRM-NH2 [Palm-SEQ ID NO:24-NH2]
3,93,Palmitoyl-EDLKRWM-NH2 [Palm-SEQ ID NO:14-NH2]
4,91,Ac-DHFLDW[Met(O)]-NH2 [Ac-SEQ ID NO:56-NH2]
5,80,Ac-QDFLHWM-NH2 [Ac-SEQ ID NO:2-NH2]
6,72,Palmitoyl-EHLKQWM-NH2 [Palm-SEQ ID NO:1-NH2]

# Target: SNARE complex (VAMP, syntaxin and SNAP-25) (UniProt P60880)
# Experiment: SDS-PAGE of SNARE complex: VAMP + syntaxin + compound, then SNAP-25; image analysis; compound at 1 mM
row,Binder,% inhibition formation SNARE complex [%]
1,Ac-EDLKRWM-NH2 [Ac-SEQ ID NO:14-NH2],83
2,Ac-NHFLNWM-NH2 [Ac-SEQ ID NO:15-NH2],50
3,Ac-EDLKRWM-NHhexadecyl [Ac-SEQ ID NO:14-NH-(CH2)15-CH3],43
4,Ac-DHFLDWM-NH2 [Ac-SEQ ID NO:25-NH2],83
5,Palmitoyl-NHFLNWM-NH2 [Palm-SEQ ID NO:15-NH2],22
6,Myristoyl-NHFLNWM-NH2 [Myr-SEQ ID NO:15-NH2],23
7,Ac-DHFQQRM-NH2 [Ac-SEQ ID NO:24-NH2],48
8,Ac-DHFLDW[Met(O2)]-NH2 [Ac-SEQ ID NO:61-NH2],44
9,Ac-DHFLNWM-NH2 [Ac-SEQ ID NO:34-NH2],14
10,Ac-EHLKQWM-NH2 [Ac-SEQ ID NO:1-NH2],59

# Continued, values first:
row,% inhibition formation SNARE complex [%],Binder
1,36,Palmitoyl-DHFLDWM-NH2 [Palm-SEQ ID NO:25-NH2]
2,17,Palmitoyl-DHFQQRM-NH2 [Palm-SEQ ID NO:24-NH2]
3,41,Palmitoyl-EDLKRWM-NH2 [Palm-SEQ ID NO:14-NH2]
4,40,Ac-DHFLDW[Met(O)]-NH2 [Ac-SEQ ID NO:56-NH2]
5,37,Ac-QDFLHWM-NH2 [Ac-SEQ ID NO:2-NH2]
6,26,Palmitoyl-EHLKQWM-NH2 [Palm-SEQ ID NO:1-NH2]
